Data as given in US20260001928A1 (CORTERIA PHARMACEUTICALS, priority 2022, published 2026).
*1 amine or outer side, *2 acyl side, *3 side chain or, on linkers, in order; H or OH if unused. Where no end group is shown, it is not given here. Side-chain parts run from the residue outwards. [ ]: non-standard residue; d: D form. The star is where a group is joined. C18 diacid = O=C(O)CCCCCCCCCCCCCCCCC(=O)*; C16 diacid = O=C(O)CCCCCCCCCCCCCCC(=O)*; γGlu = O=C(O)[C@H](CCC(=O)[*:2])N[*:1]; NMeI = CC[C@H](C)[C@H](NC)C(=O)O; Pentanoyl = CCCCC(=O)*; AEEA = NCCOCCOCC(=O)O; Aib = CC(C)(N)C(=O)O

T1: CRF1R receptor (UniProt P34998 24-415, limits assumed)
T1 sequence (looked up): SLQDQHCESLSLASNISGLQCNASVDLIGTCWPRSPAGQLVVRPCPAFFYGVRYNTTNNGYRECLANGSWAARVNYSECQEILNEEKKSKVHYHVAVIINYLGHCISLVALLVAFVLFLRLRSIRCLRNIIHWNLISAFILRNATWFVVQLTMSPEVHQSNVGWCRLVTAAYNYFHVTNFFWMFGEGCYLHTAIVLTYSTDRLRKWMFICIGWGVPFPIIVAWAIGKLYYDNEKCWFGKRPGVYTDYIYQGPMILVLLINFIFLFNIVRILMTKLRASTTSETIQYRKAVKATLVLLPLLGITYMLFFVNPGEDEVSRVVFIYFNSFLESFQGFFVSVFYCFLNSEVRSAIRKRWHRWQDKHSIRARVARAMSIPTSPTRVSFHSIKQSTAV


Legend:
CRF1R receptor = biological target: T1, CRF1R receptor; assay: cell-based or functional assay
[1] = biological target: human corticotropin-releasing factor 2a (CRF2a receptor) (human), Q13324; assay: cell-based or functional assay
human corticotropin-releasing factor 2a (CRF2a receptor) (human), Q13324, sequence (Q13324 20-411): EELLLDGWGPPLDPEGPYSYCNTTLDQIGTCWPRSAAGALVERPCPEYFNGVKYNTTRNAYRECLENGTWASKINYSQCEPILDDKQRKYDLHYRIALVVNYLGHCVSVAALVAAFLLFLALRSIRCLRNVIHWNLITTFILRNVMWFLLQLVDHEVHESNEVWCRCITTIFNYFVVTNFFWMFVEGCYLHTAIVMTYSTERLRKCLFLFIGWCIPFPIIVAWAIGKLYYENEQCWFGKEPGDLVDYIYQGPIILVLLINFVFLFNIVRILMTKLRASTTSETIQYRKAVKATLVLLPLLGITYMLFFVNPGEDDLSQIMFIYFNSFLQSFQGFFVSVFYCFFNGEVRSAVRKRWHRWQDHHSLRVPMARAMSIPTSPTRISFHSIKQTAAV

Binder	EC50 (CRF1R receptor)	Emax (% I) (CRF1R receptor)	EC50 [nM] (cAMP) [1]
Pentanoyl-VLSLD[dV]PIKLK([γGlu-C16 diacid])KILLEQEKQKKQREQAETN[Aib]QILAQV-NH2 (SMILES CCCCC(=O)N[C@H](C(=O)N[C@@H](CC(C)C)C(=O)N[C@@H](CO)C(=O)N[C@@H](CC(C)C)C(=O)N[C@@H](CC(=O)O)C(=O)N[C@@H](C(=O)N1CCC[C@H]1C(=O)N[C@H](C(=O)N[C@@H](CCCCN)C(=O)N[C@@H](CC(C)C)C(=O)N[C@@H](CCCCNC(=O)CC[C@H](NC(=O)CCCCCCCCCCCCCCC(=O)O)C(=O)O)C(=O)N[C@@H](CCCCN)C(=O)N[C@H](C(=O)N[C@@H](CC(C)C)C(=O)N[C@@H](CC(C)C)C(=O)N[C@@H](CCC(=O)O)C(=O)N[C@@H](CCC(N)=O)C(=O)N[C@@H](CCC(=O)O)C(=O)N[C@@H](CCCCN)C(=O)N[C@@H](CCC(N)=O)C(=O)N[C@@H](CCCCN)C(=O)N[C@@H](CCCCN)C(=O)N[C@@H](CCC(N)=O)C(=O)N[C@@H](CCCNC(=N)N)C(=O)N[C@@H](CCC(=O)O)C(=O)N[C@@H](CCC(N)=O)C(=O)N[C@@H](C)C(=O)N[C@@H](CCC(=O)O)C(=O)N[C@H](C(=O)N[C@@H](CC(N)=O)C(=O)NC(C)(C)C(=O)N[C@@H](CCC(N)=O)C(=O)N[C@H](C(=O)N[C@@H](CC(C)C)C(=O)N[C@@H](C)C(=O)N[C@@H](CCC(N)=O)C(=O)N[C@H](C(N)=O)C(C)C)[C@@H](C)CC)[C@@H](C)O)[C@@H](C)CC)[C@@H](C)CC)C(C)C)C(C)C) [SEQ ID NO 80]		10%	0.35 nM
Ac-IVLSLD[dV]PIKLK([γGlu-C16 diacid])KILLEQEKQKKQREQAETN[Aib]QILAQV-NH2 (SMILES CC[C@H](C)[C@H](NC(C)=O)C(=O)N[C@H](C(=O)N[C@@H](CC(C)C)C(=O)N[C@@H](CO)C(=O)N[C@@H](CC(C)C)C(=O)N[C@@H](CC(=O)O)C(=O)N[C@@H](C(=O)N1CCC[C@H]1C(=O)N[C@H](C(=O)N[C@@H](CCCCN)C(=O)N[C@@H](CC(C)C)C(=O)N[C@@H](CCCCNC(=O)CC[C@H](NC(=O)CCCCCCCCCCCCCCC(=O)O)C(=O)O)C(=O)N[C@@H](CCCCN)C(=O)N[C@H](C(=O)N[C@@H](CC(C)C)C(=O)N[C@@H](CC(C)C)C(=O)N[C@@H](CCC(=O)O)C(=O)N[C@@H](CCC(N)=O)C(=O)N[C@@H](CCC(=O)O)C(=O)N[C@@H](CCCCN)C(=O)N[C@@H](CCC(N)=O)C(=O)N[C@@H](CCCCN)C(=O)N[C@@H](CCCCN)C(=O)N[C@@H](CCC(N)=O)C(=O)N[C@@H](CCCNC(=N)N)C(=O)N[C@@H](CCC(=O)O)C(=O)N[C@@H](CCC(N)=O)C(=O)N[C@@H](C)C(=O)N[C@@H](CCC(=O)O)C(=O)N[C@H](C(=O)N[C@@H](CC(N)=O)C(=O)NC(C)(C)C(=O)N[C@@H](CCC(N)=O)C(=O)N[C@H](C(=O)N[C@@H](CC(C)C)C(=O)N[C@@H](C)C(=O)N[C@@H](CCC(N)=O)C(=O)N[C@H](C(N)=O)C(C)C)[C@@H](C)CC)[C@@H](C)O)[C@@H](C)CC)[C@@H](C)CC)C(C)C)C(C)C) [SEQ ID NO 40]		0%	0.25 nM
[NMeI]VLSLD[dV]PIKLK([γGlu-C16 diacid])KILLEQEKQKKQREQAETNVQILAQV-NH2 (N-terminus assumed; SMILES CC[C@H](C)[C@H](NC)C(=O)N[C@H](C(=O)N[C@@H](CC(C)C)C(=O)N[C@@H](CO)C(=O)N[C@@H](CC(C)C)C(=O)N[C@@H](CC(=O)O)C(=O)N[C@@H](C(=O)N1CCC[C@H]1C(=O)N[C@H](C(=O)N[C@@H](CCCCN)C(=O)N[C@@H](CC(C)C)C(=O)N[C@@H](CCCCNC(=O)CC[C@H](NC(=O)CCCCCCCCCCCCCCC(=O)O)C(=O)O)C(=O)N[C@@H](CCCCN)C(=O)N[C@H](C(=O)N[C@@H](CC(C)C)C(=O)N[C@@H](CC(C)C)C(=O)N[C@@H](CCC(=O)O)C(=O)N[C@@H](CCC(N)=O)C(=O)N[C@@H](CCC(=O)O)C(=O)N[C@@H](CCCCN)C(=O)N[C@@H](CCC(N)=O)C(=O)N[C@@H](CCCCN)C(=O)N[C@@H](CCCCN)C(=O)N[C@@H](CCC(N)=O)C(=O)N[C@@H](CCCNC(=N)N)C(=O)N[C@@H](CCC(=O)O)C(=O)N[C@@H](CCC(N)=O)C(=O)N[C@@H](C)C(=O)N[C@@H](CCC(=O)O)C(=O)N[C@H](C(=O)N[C@@H](CC(N)=O)C(=O)N[C@H](C(=O)N[C@@H](CCC(N)=O)C(=O)N[C@H](C(=O)N[C@@H](CC(C)C)C(=O)N[C@@H](C)C(=O)N[C@@H](CCC(N)=O)C(=O)N[C@H](C(N)=O)C(C)C)[C@@H](C)CC)C(C)C)[C@@H](C)O)[C@@H](C)CC)[C@@H](C)CC)C(C)C)C(C)C) [SEQ ID NO 66]		4%	1.05 nM
[NMeI]VLSLD[dV]PIKLK([γGlu-C16 diacid])KILLEQEKQKKQREQAETN[Aib]QILAQV-NH2 (N-terminus assumed; SMILES CC[C@H](C)[C@H](NC)C(=O)N[C@H](C(=O)N[C@@H](CC(C)C)C(=O)N[C@@H](CO)C(=O)N[C@@H](CC(C)C)C(=O)N[C@@H](CC(=O)O)C(=O)N[C@@H](C(=O)N1CCC[C@H]1C(=O)N[C@H](C(=O)N[C@@H](CCCCN)C(=O)N[C@@H](CC(C)C)C(=O)N[C@@H](CCCCNC(=O)CC[C@H](NC(=O)CCCCCCCCCCCCCCC(=O)O)C(=O)O)C(=O)N[C@@H](CCCCN)C(=O)N[C@H](C(=O)N[C@@H](CC(C)C)C(=O)N[C@@H](CC(C)C)C(=O)N[C@@H](CCC(=O)O)C(=O)N[C@@H](CCC(N)=O)C(=O)N[C@@H](CCC(=O)O)C(=O)N[C@@H](CCCCN)C(=O)N[C@@H](CCC(N)=O)C(=O)N[C@@H](CCCCN)C(=O)N[C@@H](CCCCN)C(=O)N[C@@H](CCC(N)=O)C(=O)N[C@@H](CCCNC(=N)N)C(=O)N[C@@H](CCC(=O)O)C(=O)N[C@@H](CCC(N)=O)C(=O)N[C@@H](C)C(=O)N[C@@H](CCC(=O)O)C(=O)N[C@H](C(=O)N[C@@H](CC(N)=O)C(=O)NC(C)(C)C(=O)N[C@@H](CCC(N)=O)C(=O)N[C@H](C(=O)N[C@@H](CC(C)C)C(=O)N[C@@H](C)C(=O)N[C@@H](CCC(N)=O)C(=O)N[C@H](C(N)=O)C(C)C)[C@@H](C)CC)[C@@H](C)O)[C@@H](C)CC)[C@@H](C)CC)C(C)C)C(C)C) [SEQ ID NO 64]		4%	0.19 nM

More lines, now with the values ahead:

EC50 (CRF1R receptor)	Emax (% I) (CRF1R receptor)	EC50 [nM] (cAMP) [1]	Binder
100 nM	27%	0.1 nM	IVLSLD[dV]PIKLK([AEEA-AEEA-γGlu-γGlu-C16 diacid])QILLKQERQKKQREQAEKNKQILEQV-NH2 [SEQ ID NO 146]
	3%	1.33 nM	Pentanoyl-VLSLD[dV]PIKLK([AEEA-AEEA-γGlu-C18 diacid])KILLEQEKQKKQREQAETN[Aib]QILAQV-NH2 (SMILES CCCCC(=O)N[C@H](C(=O)N[C@@H](CC(C)C)C(=O)N[C@@H](CO)C(=O)N[C@@H](CC(C)C)C(=O)N[C@@H](CC(=O)O)C(=O)N[C@@H](C(=O)N1CCC[C@H]1C(=O)N[C@H](C(=O)N[C@@H](CCCCN)C(=O)N[C@@H](CC(C)C)C(=O)N[C@@H](CCCCNC(=O)COCCOCCNC(=O)COCCOCCNC(=O)CC[C@H](NC(=O)CCCCCCCCCCCCCCCCC(=O)O)C(=O)O)C(=O)N[C@@H](CCCCN)C(=O)N[C@H](C(=O)N[C@@H](CC(C)C)C(=O)N[C@@H](CC(C)C)C(=O)N[C@@H](CCC(=O)O)C(=O)N[C@@H](CCC(N)=O)C(=O)N[C@@H](CCC(=O)O)C(=O)N[C@@H](CCCCN)C(=O)N[C@@H](CCC(N)=O)C(=O)N[C@@H](CCCCN)C(=O)N[C@@H](CCCCN)C(=O)N[C@@H](CCC(N)=O)C(=O)N[C@@H](CCCNC(=N)N)C(=O)N[C@@H](CCC(=O)O)C(=O)N[C@@H](CCC(N)=O)C(=O)N[C@@H](C)C(=O)N[C@@H](CCC(=O)O)C(=O)N[C@H](C(=O)N[C@@H](CC(N)=O)C(=O)NC(C)(C)C(=O)N[C@@H](CCC(N)=O)C(=O)N[C@H](C(=O)N[C@@H](CC(C)C)C(=O)N[C@@H](C)C(=O)N[C@@H](CCC(N)=O)C(=O)N[C@H](C(N)=O)C(C)C)[C@@H](C)CC)[C@@H](C)O)[C@@H](C)CC)[C@@H](C)CC)C(C)C)C(C)C) [SEQ ID NO 120]
	7%	0.6 nM	[NMeI]VLSLD[dV]PIKLK([AEEA-AEEA-γGlu-C18 diacid])KILLEQEKQKKQREQAETN[Aib]QILAQV-NH2 (N-terminus assumed; SMILES CC[C@H](C)[C@H](NC)C(=O)N[C@H](C(=O)N[C@@H](CC(C)C)C(=O)N[C@@H](CO)C(=O)N[C@@H](CC(C)C)C(=O)N[C@@H](CC(=O)O)C(=O)N[C@@H](C(=O)N1CCC[C@H]1C(=O)N[C@H](C(=O)N[C@@H](CCCCN)C(=O)N[C@@H](CC(C)C)C(=O)N[C@@H](CCCCNC(=O)COCCOCCNC(=O)COCCOCCNC(=O)CC[C@H](NC(=O)CCCCCCCCCCCCCCCCC(=O)O)C(=O)O)C(=O)N[C@@H](CCCCN)C(=O)N[C@H](C(=O)N[C@@H](CC(C)C)C(=O)N[C@@H](CC(C)C)C(=O)N[C@@H](CCC(=O)O)C(=O)N[C@@H](CCC(N)=O)C(=O)N[C@@H](CCC(=O)O)C(=O)N[C@@H](CCCCN)C(=O)N[C@@H](CCC(N)=O)C(=O)N[C@@H](CCCCN)C(=O)N[C@@H](CCCCN)C(=O)N[C@@H](CCC(N)=O)C(=O)N[C@@H](CCCNC(=N)N)C(=O)N[C@@H](CCC(=O)O)C(=O)N[C@@H](CCC(N)=O)C(=O)N[C@@H](C)C(=O)N[C@@H](CCC(=O)O)C(=O)N[C@H](C(=O)N[C@@H](CC(N)=O)C(=O)NC(C)(C)C(=O)N[C@@H](CCC(N)=O)C(=O)N[C@H](C(=O)N[C@@H](CC(C)C)C(=O)N[C@@H](C)C(=O)N[C@@H](CCC(N)=O)C(=O)N[C@H](C(N)=O)C(C)C)[C@@H](C)CC)[C@@H](C)O)[C@@H](C)CC)[C@@H](C)CC)C(C)C)C(C)C) [SEQ ID NO 118]
